From PMC6265457 (Nucleic Acids Research, 2018) come the findings set out here.

Holding throughout (assay): pull-down
The target of one test is T1, FLAG-Spp1 (wild type) (S. cerevisiae, UniProt Q03012 1-353).
T1 sequence: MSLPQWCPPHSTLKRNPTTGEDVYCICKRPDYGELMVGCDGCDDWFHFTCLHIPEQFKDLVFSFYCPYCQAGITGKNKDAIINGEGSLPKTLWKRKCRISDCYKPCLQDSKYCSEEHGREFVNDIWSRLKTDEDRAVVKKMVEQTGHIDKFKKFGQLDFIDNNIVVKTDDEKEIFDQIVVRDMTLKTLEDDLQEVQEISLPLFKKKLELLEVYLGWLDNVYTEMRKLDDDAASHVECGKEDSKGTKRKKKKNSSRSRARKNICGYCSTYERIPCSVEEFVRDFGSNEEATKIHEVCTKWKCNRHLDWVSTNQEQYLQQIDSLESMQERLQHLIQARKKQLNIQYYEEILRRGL

The target in the next test is T2, FLAG-Swd1 (S. cerevisiae, UniProt P39706 1-426).
T2 sequence: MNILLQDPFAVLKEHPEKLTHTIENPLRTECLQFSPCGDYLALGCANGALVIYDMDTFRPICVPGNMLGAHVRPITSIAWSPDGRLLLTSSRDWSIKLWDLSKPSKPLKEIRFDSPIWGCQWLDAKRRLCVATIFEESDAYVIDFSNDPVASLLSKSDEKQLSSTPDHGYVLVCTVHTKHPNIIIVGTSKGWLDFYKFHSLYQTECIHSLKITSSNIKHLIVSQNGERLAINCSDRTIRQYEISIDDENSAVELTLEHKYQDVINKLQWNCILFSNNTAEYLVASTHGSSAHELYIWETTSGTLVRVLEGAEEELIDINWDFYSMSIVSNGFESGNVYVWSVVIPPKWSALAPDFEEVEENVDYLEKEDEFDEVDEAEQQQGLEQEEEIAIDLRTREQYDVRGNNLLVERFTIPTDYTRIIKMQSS

The target of another test is T3, FLAG-Swd2 (S. cerevisiae, UniProt P36104 1-329).
T3 sequence: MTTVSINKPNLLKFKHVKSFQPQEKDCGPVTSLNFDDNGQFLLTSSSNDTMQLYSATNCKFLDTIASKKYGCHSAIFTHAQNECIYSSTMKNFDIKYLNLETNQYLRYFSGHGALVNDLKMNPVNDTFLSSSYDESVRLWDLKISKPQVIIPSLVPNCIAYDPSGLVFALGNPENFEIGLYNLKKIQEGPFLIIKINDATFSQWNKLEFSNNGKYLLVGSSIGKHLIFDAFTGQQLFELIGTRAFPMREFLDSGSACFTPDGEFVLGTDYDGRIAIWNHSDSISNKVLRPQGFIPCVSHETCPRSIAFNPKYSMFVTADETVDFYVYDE

B1: GST-tagged n-SET fragment (Set1 residues 762–937) (domain or fragment)
chain: MDLQNAIKDEEDMLILKQLLSTYTPTVTPETSAALEYKIWQSRRKVLEEEKASDWQIELNGTLFDSELQPGSSFKAEGFRKIADKLKINYLPHRRRVHQPLNTVNIHNERNEYTPELCQREESSNKEPSDSVPQEVSSSRDNRASNRRFQQDIEAQKAAIGTESELLSLNQLNKRK
In the case of B1, in the test with FLAG-Spp1 (wild type), the binding result is reported as “binds”.

B2: GST-tagged Set1 fragment, residues 1–123 (domain or fragment)
chain: MSNYYRRAHASSGSYRQPQEQPQYSRSGHYQYSNGHSHQQYSSQYNQRRRYNHNDGTRRRYNDDRPHSSNNASTRQYYATNNSQSGPYVNKKSDISSRRGMSQSRYSNSNVHNTLASSSGSLP
With B2, in the test with FLAG-Swd1, the binding result is recorded as “binds”.

B3: GST-tagged Set1 fragment, residues 124–229 (domain or fragment)
chain: TESALLLQQRPPSVLRYNTDNLKSKFHYFDPIKGEFFNKDKMLSWKATDKEFSETGYYVVKELQDGQFKFKIKHRHPEIKASDPRNENGIMTSGKVATHRKCRNSL
As for B3, the binding result with FLAG-Swd2 was “binds”.
